According to patent US20220298218A1 (ANTAG THERAPEUTICS, published 2022):
Read-outs that look alike come from different tables or passages of the source. *1 amine or outer side, *2 acyl side, *3 side chain or, on linkers, in order; H or OH if unused. Where no end group is shown, it is not given here. Side-chain parts run from the residue outwards. The star is where a group is joined. C18 diacid = O=C(O)CCCCCCCCCCCCCCCCC(=O)*; γGlu = O=C(O)[C@H](CCC(=O)[*:2])N[*:1]; AEEA = NCCOCCOCC(=O)O

T1: human GIP receptor (human, UniProt P48546 22-466)
T1 sequence (looked up): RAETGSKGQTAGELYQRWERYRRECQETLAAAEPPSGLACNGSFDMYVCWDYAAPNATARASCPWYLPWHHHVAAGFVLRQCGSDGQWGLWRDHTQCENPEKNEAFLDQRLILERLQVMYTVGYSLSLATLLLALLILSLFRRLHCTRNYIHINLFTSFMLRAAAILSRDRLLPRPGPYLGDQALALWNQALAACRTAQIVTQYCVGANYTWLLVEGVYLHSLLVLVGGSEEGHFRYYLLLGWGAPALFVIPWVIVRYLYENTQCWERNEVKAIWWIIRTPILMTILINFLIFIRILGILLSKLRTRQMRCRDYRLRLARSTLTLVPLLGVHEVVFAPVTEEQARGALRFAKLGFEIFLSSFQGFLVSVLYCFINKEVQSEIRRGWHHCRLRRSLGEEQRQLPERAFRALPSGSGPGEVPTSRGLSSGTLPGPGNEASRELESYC


What was measured:
human GIP receptor [1] = molecular target: T1, human GIP receptor; experiment: cell-based or functional assay
human GIP receptor [2] = molecular target: T1, human GIP receptor; experiment: cell-based or functional assay; remark: listed apart in the source

Binder	cAMP agonism Emax (human GIP receptor [1])	cAMP antagonism (human GIP receptor [1]) [nM]	cAMP antagonism % inhib (human GIP receptor [1]) [%]	cAMP antagonism log (human GIP receptor [1]) [log M]	cAMP agonism % Emax (human GIP receptor [2]) [%]	cAMP antagonism (human GIP receptor [2]) [nM]	cAMP antagonism % inhib (human GIP receptor [2]) [%]	cAMP antagonism pIC50 (human GIP receptor [2])
SGTFISDYSIAMDKIK([AEEA-AEEA-AEEA-γGlu-C18 diacid])QQDFVNWLLAQKGKKNDW-OH (N-terminus assumed; SMILES CC[C@H](C)[C@H](NC(=O)[C@H](CO)NC(=O)[C@H](Cc1ccc(O)cc1)NC(=O)[C@H](CC(=O)O)NC(=O)[C@H](CO)NC(=O)[C@@H](NC(=O)[C@H](Cc1ccccc1)NC(=O)[C@@H](NC(=O)CNC(=O)[C@@H](N)CO)[C@@H](C)O)[C@@H](C)CC)C(=O)N[C@@H](C)C(=O)N[C@@H](CCSC)C(=O)N[C@@H](CC(=O)O)C(=O)N[C@@H](CCCCN)C(=O)N[C@H](C(=O)N[C@@H](CCCCNC(=O)COCCOCCNC(=O)COCCOCCNC(=O)COCCOCCNC(=O)CC[C@H](NC(=O)CCCCCCCCCCCCCCCCC(=O)O)C(=O)O)C(=O)N[C@@H](CCC(N)=O)C(=O)N[C@@H](CCC(N)=O)C(=O)N[C@@H](CC(=O)O)C(=O)N[C@@H](Cc1ccccc1)C(=O)N[C@H](C(=O)N[C@@H](CC(N)=O)C(=O)N[C@@H](Cc1c[nH]c2ccccc12)C(=O)N[C@@H](CC(C)C)C(=O)N[C@@H](CC(C)C)C(=O)N[C@@H](C)C(=O)N[C@@H](CCC(N)=O)C(=O)N[C@@H](CCCCN)C(=O)NCC(=O)N[C@@H](CCCCN)C(=O)N[C@@H](CCCCN)C(=O)N[C@@H](CC(N)=O)C(=O)N[C@@H](CC(=O)O)C(=O)N[C@@H](Cc1c[nH]c2ccccc12)C(=O)O)C(C)C)[C@@H](C)CC) [AT422]	6	3	90	-8.5	0	3.69	94	8.4
TFISDYKIAMDKIHQQDFVNWLLAQKGKKNDW (HELM PEPTIDE1{T.F.I.S.D.Y.K.I.A.M.D.K.I.H.Q.Q.D.F.V.N.W.L.L.A.Q.K.G.K.K.N.D.W}|PEPTIDE2{[O=C(O)CCCCCCCCCCCCCCC(=O)[*:2]].[gGlu]}$PEPTIDE1,PEPTIDE2,7:R3-2:R2$$$V2.0; N-terminus assumed; SMILES CC[C@H](C)[C@H](NC(=O)[C@H](CCCCNC(=O)CC[C@H](NC(=O)CCCCCCCCCCCCCCC(=O)O)C(=O)O)NC(=O)[C@H](Cc1ccc(O)cc1)NC(=O)[C@H](CC(=O)O)NC(=O)[C@H](CO)NC(=O)[C@@H](NC(=O)[C@H](Cc1ccccc1)NC(=O)[C@@H](N)[C@@H](C)O)[C@@H](C)CC)C(=O)N[C@@H](C)C(=O)N[C@@H](CCSC)C(=O)N[C@@H](CC(=O)O)C(=O)N[C@@H](CCCCN)C(=O)N[C@H](C(=O)N[C@@H](Cc1c[nH]cn1)C(=O)N[C@@H](CCC(N)=O)C(=O)N[C@@H](CCC(N)=O)C(=O)N[C@@H](CC(=O)O)C(=O)N[C@@H](Cc1ccccc1)C(=O)N[C@H](C(=O)N[C@@H](CC(N)=O)C(=O)N[C@@H](Cc1c[nH]c2ccccc12)C(=O)N[C@@H](CC(C)C)C(=O)N[C@@H](CC(C)C)C(=O)N[C@@H](C)C(=O)N[C@@H](CCC(N)=O)C(=O)N[C@@H](CCCCN)C(=O)NCC(=O)N[C@@H](CCCCN)C(=O)N[C@@H](CCCCN)C(=O)N[C@@H](CC(N)=O)C(=O)N[C@@H](CC(=O)O)C(=O)N[C@@H](Cc1c[nH]c2ccccc12)C(=O)O)C(C)C)[C@@H](C)CC) [AT366]	–	3	100	-8.5	0	17.8	100	7.8
